Paper PMC4461205, “Structural bases for N-glycan processing by mannoside phosphorylase” (Acta Crystallographica Section D: Biological Crystallography, 2015)
One block for each compound: values may come before it.

Tests used:
[1] = biological target: T1, Uhgb_MP (uncultured organism, UniProt D9ZDQ9); details: catalytic site; phosphate from 20 mM potassium phosphate buffer pH 7.0; glycerol in -1 subsite; 1.80 A; also in 4udj, 4udg, 4udk
[2] = biological target: T1, Uhgb_MP; test: X-ray crystal structure, co-crystallization; assay type: binding; design: homohexamer, 240 kDa by SEC-MALLS; details: +1 subsite; with phosphate, glycerol in -1 subsite; co-crystallized with 5 mM N-acetylglucosamine, pH 7.0; 4C1 chair; 1.60 A; also with mannose in 4udk (1.76 A)
[3] = biological target: Uhgb_MP, β-1,4-mannopyranosyl-chitobiose phosphorylase (GH130_2 mannoside phosphorylase) (uncultivated Bacteroides bacterium (human gut)); test: SEC-MALS; 30 µl of gel-filtered Uhgb_MP at 6 mg/ml on Superdex 200 HR 10/300 in 20 mM potassium phosphate pH 7.0, 150 mM NaCl, 0.4 ml/min, 15°C
[4] = biological target: Uhgb_MP, β-1,4-mannopyranosyl-chitobiose phosphorylase (GH130_2 mannoside phosphorylase) (uncultivated Bacteroides bacterium (human gut)); test: SAXS (SEC-SAXS); Bio SEC3 300 column on line with SAXS, 10°C; phosphate buffer or Tris-glycerol buffer (aggregation seen in both); hexamer read from data in Tris-glycerol buffer with 1 mM TCEP; ab initio envelope and rigid-body modelling
[5] = biological target: Uhgb_MP, β-1,4-mannopyranosyl-chitobiose phosphorylase (GH130_2 mannoside phosphorylase) (uncultivated Bacteroides bacterium (human gut)); test: crystal structure; sitting-drop vapour diffusion at 12°C; protein 9-12 mg/ml in 20 mM potassium phosphate pH 7.0, 150 mM NaCl, with or without 5 mM mannose and/or 5 mM N-acetylglucosamine; PEG 3350, ammonium chloride; space group P212121, six molecules per asymmetric unit

T1 sequence (D9ZDQ9 entry or part of it): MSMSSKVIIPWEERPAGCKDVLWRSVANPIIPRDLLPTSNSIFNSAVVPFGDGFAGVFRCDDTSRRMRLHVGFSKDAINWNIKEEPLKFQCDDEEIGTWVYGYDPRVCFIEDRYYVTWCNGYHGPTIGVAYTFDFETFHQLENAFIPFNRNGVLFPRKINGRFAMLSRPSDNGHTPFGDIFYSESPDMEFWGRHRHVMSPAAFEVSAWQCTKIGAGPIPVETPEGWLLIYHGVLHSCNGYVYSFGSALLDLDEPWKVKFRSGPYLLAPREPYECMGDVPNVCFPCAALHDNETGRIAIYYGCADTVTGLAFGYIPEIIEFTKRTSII

Compound: O=P(O)(O)O [inorganic phosphate]
X-ray crystal structure [1]: Pi is deeply buried in the catalytic site, strongly stabilized by hydrogen bonds

Compound: CC(=O)N[C@H]1C(O)O[C@H](CO)[C@@H](O)[C@@H]1O (some centres unmarked) [N-acetylglucosamine]
X-ray crystal structure, co-crystallization [2]: complex with N-acetylglucosamine alone (PDB entry 4udg

stoichiometry N [3]: 6.16
stoichiometry N [4]: 6
stoichiometry N [5]: 6
Compound: Uhgb_MP, β-1,4-mannopyranosyl-chitobiose phosphorylase (GH130_2 mannoside phosphorylase) (enzyme)
